Key:
[1] = biological target: T1, hNotch4 (EGF7-12, residues 276-511), biotinylated (human, UniProt Q99466 276-511, Biotinylated in vitro by BirA at the C-terminal BAP-tag (tag not in the letters).); assay: SPR, KD of Delta^MAX against KD of WT DLL4
T1 construct: Immobilised on a streptavidin chip for SPR; also called Notch4 (7-12)
T1 sequence: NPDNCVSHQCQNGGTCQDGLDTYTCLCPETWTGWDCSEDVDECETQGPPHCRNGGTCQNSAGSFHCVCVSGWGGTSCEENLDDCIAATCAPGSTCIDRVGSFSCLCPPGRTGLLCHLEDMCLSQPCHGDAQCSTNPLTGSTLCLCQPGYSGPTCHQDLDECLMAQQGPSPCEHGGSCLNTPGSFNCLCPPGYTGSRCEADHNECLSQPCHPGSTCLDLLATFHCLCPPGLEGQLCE
Description: (§1) Surface plasmon resonance (SPR) was used to determine the binding affinity between Delta^MAX and the ligand-binding regions of Notch1-4. As a basis for comparison, a WT DLL4 construct, a DLL4.v2 construct, and a “DLL4.v1” construct containing the five E12 mutations (G28S, F107L, N118I, H194Y, and L206P) were also generated (FIG. 2A, 10). […] The rapid dissociation of WT DLL4 precluded kinetic fitting of the binding data.
(§2) Equilibrium dissociation constants were determined by surface plasmon resonance using a Biacore T200 instrument (GE Healthcare). Approximately 100 resonance units (RU) of biotinylated Notch extracellular fragments (Notch1 (EGF6-13), Notch2 (EGF6-13), Notch3 (EGF5-12), Notch4 (7-12), and mouse Notch1 (EGF6-13)) were immobilized on individual flow cells at 5 μl/min using a streptavidin-coated sensor chip (Series S Sensor chip SA, GE Healthcare). Three-fold serial dilutions of recombinant DLL4 proteins (N-EGF5) starting at 50 μM (WT DLL4), 18 μM (DLL4.v2), and 6 μM (DLL4.v1 and Delta^MAX) were flowed over the chip at 25° C. in SPR buffer (20 mM HEPES pH 7.4, 150 mM NaCl, 1 mM calcium chloride, 0.1% BSA supplemented with 0.005% surfactant P20). Association (“on-rate”) and dissociation (“off-rate”) phases were performed at 10 μl/min for 120 seconds and 300 seconds, respectively. […] Data collection rate was performed at 10 Hz, and curves were reference-subtracted from a flow cell containing 100 RU of a negative control non-related protein (biotinylated mouse RNF43 PA domain).

[2] = biological target: T2, hNotch2 (EGF6-13, residues 221-530), biotinylated (human, UniProt Q04721 221-530, Biotinylated in vitro by BirA at the C-terminal BAP-tag (tag not in the letters).); assay: SPR, KD of Delta^MAX against KD of WT DLL4
T2 construct: Immobilised on a streptavidin chip for SPR
T2 sequence: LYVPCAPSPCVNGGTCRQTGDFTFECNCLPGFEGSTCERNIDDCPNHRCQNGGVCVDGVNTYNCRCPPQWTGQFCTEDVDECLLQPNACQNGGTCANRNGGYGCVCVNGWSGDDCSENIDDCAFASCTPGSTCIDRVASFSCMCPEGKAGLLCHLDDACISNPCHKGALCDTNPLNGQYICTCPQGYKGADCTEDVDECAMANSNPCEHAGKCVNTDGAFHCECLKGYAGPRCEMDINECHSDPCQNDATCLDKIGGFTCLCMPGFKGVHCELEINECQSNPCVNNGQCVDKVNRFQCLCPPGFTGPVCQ
Description: as §1, §2

[3] = biological target: T3, hNotch3 (EGF5-12, residues 197-505), biotinylated (human, UniProt Q9UM47 197-505, Biotinylated in vitro by BirA at the C-terminal BAP-tag (tag not in the letters).); assay: SPR, KD of Delta^MAX against KD of WT DLL4
T3 construct: Immobilised on a streptavidin chip for SPR
T3 sequence: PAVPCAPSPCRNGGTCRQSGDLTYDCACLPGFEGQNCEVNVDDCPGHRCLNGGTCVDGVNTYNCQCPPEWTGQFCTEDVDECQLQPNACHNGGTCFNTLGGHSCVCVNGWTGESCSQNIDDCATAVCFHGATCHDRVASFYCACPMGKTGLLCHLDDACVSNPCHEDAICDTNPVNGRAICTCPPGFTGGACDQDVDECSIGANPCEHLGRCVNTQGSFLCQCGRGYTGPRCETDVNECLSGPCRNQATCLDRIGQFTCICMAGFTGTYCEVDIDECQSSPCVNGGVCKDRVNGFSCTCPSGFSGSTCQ
Description: as §1, §2

[4] = biological target: Notch1 on U2OS hNotch1-Gal4 luciferase reporter cells (human, UniProt P46531 19-2555); assay: cell-based or functional assay
[5] = biological target: Notch1 on CHO-K1 N1-Gal4 fluorescent reporter cells (UniProt P46531 19-2555, limits assumed); assay: cell-based or functional assay
Notch1 on CHO-K1 N1-Gal4 fluorescent reporter cells, sequence (P46531 19-2555 limits assumed): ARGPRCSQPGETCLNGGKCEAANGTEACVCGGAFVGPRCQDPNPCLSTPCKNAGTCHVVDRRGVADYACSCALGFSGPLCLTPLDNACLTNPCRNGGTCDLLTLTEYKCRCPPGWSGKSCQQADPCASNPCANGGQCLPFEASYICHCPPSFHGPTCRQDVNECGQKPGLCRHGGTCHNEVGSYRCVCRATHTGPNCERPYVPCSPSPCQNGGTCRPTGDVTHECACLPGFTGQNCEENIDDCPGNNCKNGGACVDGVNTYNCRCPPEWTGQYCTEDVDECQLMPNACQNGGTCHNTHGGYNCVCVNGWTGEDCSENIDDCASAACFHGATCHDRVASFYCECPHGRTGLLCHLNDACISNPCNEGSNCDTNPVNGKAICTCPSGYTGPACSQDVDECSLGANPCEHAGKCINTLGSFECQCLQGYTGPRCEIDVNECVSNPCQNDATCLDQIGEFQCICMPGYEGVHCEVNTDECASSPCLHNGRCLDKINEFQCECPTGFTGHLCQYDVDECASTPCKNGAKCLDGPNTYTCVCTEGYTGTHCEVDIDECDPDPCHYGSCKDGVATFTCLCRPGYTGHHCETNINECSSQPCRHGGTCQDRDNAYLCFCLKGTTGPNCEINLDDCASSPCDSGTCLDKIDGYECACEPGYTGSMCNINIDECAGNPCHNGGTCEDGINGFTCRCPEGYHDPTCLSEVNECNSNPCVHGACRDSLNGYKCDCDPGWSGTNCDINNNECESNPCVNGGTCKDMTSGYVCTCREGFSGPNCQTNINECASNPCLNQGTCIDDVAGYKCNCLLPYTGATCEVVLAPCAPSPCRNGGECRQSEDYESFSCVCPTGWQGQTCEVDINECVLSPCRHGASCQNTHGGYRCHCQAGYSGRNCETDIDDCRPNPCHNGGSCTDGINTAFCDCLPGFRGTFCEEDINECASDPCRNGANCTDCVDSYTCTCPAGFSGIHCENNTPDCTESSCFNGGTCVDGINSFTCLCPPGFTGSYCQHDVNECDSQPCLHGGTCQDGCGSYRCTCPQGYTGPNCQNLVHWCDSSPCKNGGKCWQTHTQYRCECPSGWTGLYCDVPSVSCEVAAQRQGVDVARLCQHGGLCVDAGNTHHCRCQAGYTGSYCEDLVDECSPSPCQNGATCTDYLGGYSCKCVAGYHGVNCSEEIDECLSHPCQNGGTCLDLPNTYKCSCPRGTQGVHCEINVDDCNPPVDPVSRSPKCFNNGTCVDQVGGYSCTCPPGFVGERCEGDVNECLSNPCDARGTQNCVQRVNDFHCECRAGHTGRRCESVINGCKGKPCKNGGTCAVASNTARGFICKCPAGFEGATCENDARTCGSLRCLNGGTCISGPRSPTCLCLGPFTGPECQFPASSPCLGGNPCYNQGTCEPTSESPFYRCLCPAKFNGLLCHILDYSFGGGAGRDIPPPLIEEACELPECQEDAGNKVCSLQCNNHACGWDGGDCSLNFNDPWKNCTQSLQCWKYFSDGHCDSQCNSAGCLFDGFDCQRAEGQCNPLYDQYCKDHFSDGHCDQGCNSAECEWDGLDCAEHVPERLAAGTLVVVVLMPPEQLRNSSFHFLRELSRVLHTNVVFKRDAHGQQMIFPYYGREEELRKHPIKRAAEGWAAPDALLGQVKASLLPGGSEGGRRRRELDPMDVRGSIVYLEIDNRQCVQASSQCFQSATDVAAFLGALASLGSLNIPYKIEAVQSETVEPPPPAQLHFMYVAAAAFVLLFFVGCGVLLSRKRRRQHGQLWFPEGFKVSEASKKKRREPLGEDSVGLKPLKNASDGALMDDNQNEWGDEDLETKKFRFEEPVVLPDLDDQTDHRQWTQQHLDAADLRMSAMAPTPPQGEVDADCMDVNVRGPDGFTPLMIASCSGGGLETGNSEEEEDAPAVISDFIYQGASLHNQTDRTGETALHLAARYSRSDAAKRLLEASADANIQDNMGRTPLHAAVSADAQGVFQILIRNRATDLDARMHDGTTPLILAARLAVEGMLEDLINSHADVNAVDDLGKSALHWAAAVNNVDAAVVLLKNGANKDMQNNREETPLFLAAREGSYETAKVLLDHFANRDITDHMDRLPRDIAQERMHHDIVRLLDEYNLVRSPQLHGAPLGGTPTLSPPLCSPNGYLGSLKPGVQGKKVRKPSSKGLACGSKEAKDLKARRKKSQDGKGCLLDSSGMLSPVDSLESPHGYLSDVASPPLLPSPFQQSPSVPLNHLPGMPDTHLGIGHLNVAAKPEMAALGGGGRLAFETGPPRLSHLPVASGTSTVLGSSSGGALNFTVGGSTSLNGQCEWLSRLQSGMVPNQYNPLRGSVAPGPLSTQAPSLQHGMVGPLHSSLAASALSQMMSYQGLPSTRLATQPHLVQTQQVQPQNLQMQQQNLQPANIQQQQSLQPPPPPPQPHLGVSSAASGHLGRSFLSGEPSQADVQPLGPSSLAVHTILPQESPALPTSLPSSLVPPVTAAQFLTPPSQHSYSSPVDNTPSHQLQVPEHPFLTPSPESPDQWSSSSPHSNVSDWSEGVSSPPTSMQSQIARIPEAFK

Notch1 on U2OS hNotch1-Gal4 luciferase reporter cells, sequence (P46531 19-2555): as the sequence (P46531 19-2555 limits assumed) above

B1: Delta^MAX (N-EGF5), non-biotinylated (ligand)
chain: SSVFQLQLQEFINERGVLASGRPCEPGCRTFFRVCLKHFQAVVSPGPCTFGTVSTPVLGTNSFAVRDDSSGGGRNPLQLPLNFTWPGTFSLIIEAWHAPGDDLRPEALPPDALISKFAIQGSLAVGQNWLLDEQTSTLTRLRYSYRVICSDNYYGDNCSRLCKKRNDYFGHYVCQPDGNPSCLPGWTGEYCQQPICLSGCHEQNGYCSKPAECLCRPGWQGRLCNECIPHPGCRHGTCSTPWQCLCDEGWGGLYCDQDLNYCTHHSPCKNGATCRNSGPRSYTCTCRPGYTGVDCELELSECDSNPCRNGGSCKDQEDGYHCLCPPGYYGLHCEHSTLSCADSPCFNGGSCRERNQGANYACECPPNFTGSNCEHHHHHHHH
notes: also called DLL4^MAX; soluble Delta^MAX
In the case of B1, the “fold enhancement of affinity compared to WT DLL4” value (“fold enhancement of affinity” for short) [1] is reported as 532 fold, the “fold enhancement of affinity” value [2] is reported as 670 fold and the “fold enhancement of affinity” value [3] is reported as 591 fold. The “increase in Notch1 activation relative to control, non-specific adsorption” value [4] was 23 fold, the “EC50 of Notch1 activation, fluorescent reporter cells, ligand non-specifically adsorbed to plates” value [5] was 0.009 ng/mm^2 and the “IC50 of inhibition of Notch1 activation on WT DLL4-coated plates (comparison with DAPT and BB-94)” value [5] was 1 nM. The “IC50 of inhibition of Notch1 reporter signalling in co-culture with HEK293T cells expressing WT DLL4” value [5] was 400 nM, the “IC50 of inhibition of Notch1 reporter signalling on WT DLL4-coated plates” value [5] was 0.6 nM and the “improvement in Notch activation efficiency against WT DLL4 (adsorbed ligand)” value [5] was 250 fold.

Reference: patent US20260055369A1 (H LEE MOFFITT CANCER CENTER AND RESEARCH INSTITUTE, published 2026)
